Paper PMC2441797

Target: recombinant PARP-1 (rPARP-1) (UniProt P09874 1-1014)
Test: Southwestern blot

Sequence of recombinant PARP-1 (rPARP-1) (P09874 whole entry): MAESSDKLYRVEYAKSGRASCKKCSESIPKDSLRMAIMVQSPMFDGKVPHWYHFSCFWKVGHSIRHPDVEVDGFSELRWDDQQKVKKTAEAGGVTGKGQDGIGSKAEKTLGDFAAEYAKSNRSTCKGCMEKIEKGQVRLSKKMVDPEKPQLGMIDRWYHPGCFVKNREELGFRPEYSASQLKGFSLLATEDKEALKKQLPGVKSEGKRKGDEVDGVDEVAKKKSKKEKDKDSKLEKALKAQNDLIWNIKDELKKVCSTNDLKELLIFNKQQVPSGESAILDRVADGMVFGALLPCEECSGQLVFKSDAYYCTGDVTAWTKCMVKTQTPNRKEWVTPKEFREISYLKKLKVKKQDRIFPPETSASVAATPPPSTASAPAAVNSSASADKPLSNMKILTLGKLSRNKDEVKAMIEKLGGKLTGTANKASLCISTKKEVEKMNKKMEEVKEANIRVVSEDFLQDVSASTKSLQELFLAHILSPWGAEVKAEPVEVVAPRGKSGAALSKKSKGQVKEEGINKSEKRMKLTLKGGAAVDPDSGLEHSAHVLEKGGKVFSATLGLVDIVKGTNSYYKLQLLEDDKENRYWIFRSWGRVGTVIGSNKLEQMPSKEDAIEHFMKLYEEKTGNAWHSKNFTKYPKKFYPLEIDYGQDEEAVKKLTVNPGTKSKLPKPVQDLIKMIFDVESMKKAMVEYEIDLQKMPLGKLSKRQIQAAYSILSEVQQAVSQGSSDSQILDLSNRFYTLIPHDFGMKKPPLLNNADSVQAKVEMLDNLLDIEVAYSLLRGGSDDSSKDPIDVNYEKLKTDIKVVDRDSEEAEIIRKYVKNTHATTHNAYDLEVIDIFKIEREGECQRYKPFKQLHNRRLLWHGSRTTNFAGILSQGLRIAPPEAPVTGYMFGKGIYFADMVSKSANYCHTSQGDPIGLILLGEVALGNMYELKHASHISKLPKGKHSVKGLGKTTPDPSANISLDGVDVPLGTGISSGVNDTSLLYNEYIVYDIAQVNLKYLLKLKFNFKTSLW

B1: 32R (KRAS NHE G-quadruplex), radiolabelled (structured_DNA)
DNA: AGGGCGGTGTGGGAAGAGGGAAGAGGGGGAGG
  binding result: binds
